The record followed here is patent US20240158799, “[…] THAT […] BIND TO A SARS-COV-2 VIRUS NUCLEOCAPSID PROTEIN” (IQ SCIENCE LIMITED, published 2024).

Data set [1] concerns the target SARS-CoV-2 spike protein (S1/S2 complex) (SARS-CoV-2, UniProt P0DTC2 P0DTC2:14-1213).
Data set [2] has as its target SARS-CoV-2 nucleocapsid protein (SARS-CoV-2, UniProt P0DTC9 P0DTC9:1-419).

B1: SS12 (ssDNA)
DNA: TAACCACATAACCGCAAGACGATGGCCGCAACCGAGAAACTATGACGATGGATCACGGCTATTGTGCTACTCTCCTCGT
As for B1, the binding result in data set [1] is reported as “binds”.

B2: SS10 (ssDNA)
DNA: TAACCACATAACCGCAAGACGCACGCAAAACTTTCAGTAATCCTAAGATGCCATGTTACTATTGTGCTACTCTCCTCGT
Regarding B2, the binding result in data set [1] is given as “binds”.

B3: N06 (ssDNA)
DNA: TAACCACATAACCGCAAGATCCCGATAGACCCGCGTCTCATGTACCTTACATGCTACGATATTGTGCTACTCTCCTCGT
As for B3, in data set [2], the affinity, expressed as Kd, was 25.1 nM. That is a double-digit nanomolar value.

B4: SS20 (ssDNA)
DNA: TAACCACATAACCGCAAGACGAACACCGATGCCGCGCACAATCGTGTAAACGGATGTCCTATTGTGCTACTCTCCTCGT
As to B4, in data set [1], the binding result is “binds”.

B5: N11 (ssDNA)
DNA: TAACCACATAACCGCAAGACGACGCGATACAAAACACTACTAATCTCTCGTCGCACTAGTATTGTGCTACTCTCCTCGT
B5 showed a Kd in data set [2] of 29.6 nM.

B6: SS48 (ssDNA)
DNA: TAACCACATAACCGCAAGACGACGACACAAAAGCATTTCGGCAATCCGACAGTGGTCCATATTGTGCTACTCTCCTCGT
Turning to B6, in data set [1], the binding result is “binds”.

B7: N08 (ssDNA)
DNA: TAACCACATAACCGCAAGACCACACGCACGAAAACAATTGACATGAAATTTACGGCTCTTATTGTGCTACTCTCCTCGT
The molecule B7 yielded a Kd in data set [2] of 18.7 nM.

B8: SS18 (ssDNA)
DNA: TAACCACATAACCGCAAGACCAGCAGAAAACTCAACATAAGCAGCAGTTCGGGCGCTACTATTGTGCTACTCTCCTCGT
B8: in data set [1], the binding result is reported as “binds”.

B9: SS04 (ssDNA)
DNA: TAACCACATAACCGCAAGACGAACGAACCATATAACGCGTAGTAACATCCAAGGCGCCCTATTGTGCTACTCTCCTCGT
In the case of B9, in data set [1], the binding result is given as “binds”.

As a reminder, the Kd is the constant that tells how readily two partners part at equilibrium. Lower therefore signals tighter binding.
